Results published in patent US20260125476A1 (INTERVET, published 2026).
Substitutions are numbered along the chain they refer to. Like-named read-outs stand apart in the source and are kept apart here. Each block holds one binder with its values, some of them ahead of it.

What was measured:
[1] = molecular target: T1, canine CTLA-4 (cCTLA-4) recombinant protein (canine, UniProt Q9XSI1 38-161, limits assumed); assay: ELISA on coated cCTLA-4, OD450/540 ('xCTLA4 ELISA', Example 7)
T1 construct: also called canine Cytotoxic T-Lymphocyte-Associated protein 4; CD152
T1 chain: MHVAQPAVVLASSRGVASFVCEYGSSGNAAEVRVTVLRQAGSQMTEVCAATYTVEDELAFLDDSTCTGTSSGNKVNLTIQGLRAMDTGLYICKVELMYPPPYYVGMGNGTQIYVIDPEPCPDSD

[2] = molecular target: T1, canine CTLA-4 (cCTLA-4) recombinant …; assay: blocking ELISA: cCTLA-4 coated at 200 ng/well, antibody dilutions mixed with 100 ng/well biotinylated canine CD86 (the blocked ligand), streptavidin-HRP, OD450/540 (Example 4)
Description: (§1) Coat 200 ng/well cCTLA-4 in an immunoplate and incubate the plate at 4° C. overnight. […] Wash the plate 3 times by PBS with 0.05% Tween 20 (PBST). […] Block the plate with 0.5% BSA in PBS for 45-60 min at room temperature. […] Wash the plate 3 times by PBST. […] Next mixed with the antibodies. […] Transferred the mixture into each column or row of the immunoplate, and incubated the plate for 45-60 min at room temperature. […] Washed the plate 3 times with PBST. […] Added 1:2000 diluted horseradish peroxidase conjugated streptavidin into each well of the plate, and incubated the plate for 45-60 min at room temperature. […] Washed the plate 3 times with PBST. […] Added the TMB Substrate into each well of the plate, and incubated the plate for 10 to 15 minutes at room temperature to allow for color development. […] Added 100 μL of 1.5 M phosphoric acid into each well to stop the reaction. […] Read the plate at 450 nm with 540 nm reference wavelength.

[3] = molecular target: T1, canine CTLA-4 (cCTLA-4) recombinant …; assay: ELISA: cCTLA-4 coated at 200 ng/well, three-fold antibody dilutions, HRP anti-canine IgG Fc, OD450/540 (Example 3)
[4] = molecular target: T1, canine CTLA-4 (cCTLA-4) recombinant …; assay: blocking ELISA: cCTLA-4 coated at 200 ng/well, antibody dilutions mixed with 100 ng/well biotinylated canine CD80 (the blocked ligand), streptavidin-HRP, OD450/540 (Example 4)
Description: as §1

[5] = molecular target: T2, canine CTLA-4 expressed on CHO-K1 cells (canine, UniProt Q9XSI1 38-223); assay: flow cytometry on CHO-K1 cells stably expressing cCTLA-4, labelled anti-canine IgG, FL4-H histogram (Example 5); antibody concentration not given
T2 construct: also called CHO-cCTLA-4; CHO-K1-cCTLA-4 cells
T2 chain: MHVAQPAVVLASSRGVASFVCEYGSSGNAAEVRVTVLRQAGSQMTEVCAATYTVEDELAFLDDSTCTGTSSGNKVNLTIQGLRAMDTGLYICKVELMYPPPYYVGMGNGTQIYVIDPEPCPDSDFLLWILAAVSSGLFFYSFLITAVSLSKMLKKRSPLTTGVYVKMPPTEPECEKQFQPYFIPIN

[6] = molecular target: T2, canine CTLA-4 expressed on CHO-K1 cells; assay: as above
Excerpt: (§2) A CHO-K1 cell line stably expressing cCTLA-4 was generated. The cells were used to test antibody binding and blocking activity in FACS flow assay. […] Grew CHO-K1-cCTLA-4 cells in the culture medium in T-75 flask. The cells are passaged when the cell confluency reaches to 90%. […] Detached the cells by Trypsin-EDTA solution, resuspended the cells in culture medium, and counted the viable cells with more than 95% viability. […] Spun down the cells, aspirated the supernatant, then resuspended the cells into FACS buffer (Thermo Fisher Scientific, Cat #BDB554656) to 1×10⁷ cells/mL. […] Added antibody into 100 μL of the cells, incubated at room temperature for 30 min with gentle shaking. […] Washed the cells by 3×250 μL of FACS buffer, and resuspended the cells into 100 μL FACS buffer. […] Stained the cells with FITC conjugated anti-canine IgG, incubated at room temperature for 30 min with gentle shaking. […] Washed the cells with 3×250 μL of FACS buffer and resuspended the cells into 500 μL FACS buffer. […] Read 10,000 cells by flow cytometry.

[7] = molecular target: T2, canine CTLA-4 expressed on CHO-K1 cells; assay: as above
Excerpt: as §2

[8] = molecular target: T2, canine CTLA-4 expressed on CHO-K1 cells; assay: as above
Excerpt: as §2

B1: Caninized c39A11L3H3 (antibody, V domains shown)
VH: EVKLVESGGDLVKPGGSLRLSCATSGFTFSDYYMSWVRQAPGKALEWMGFIRNKANGYTTEYSASLKGRFTISRDNAKNMLYLQMNSLRAEDTAVYYCVRFGLMYYFDYWGQGTTLTVSS
VL: ENVLTQSPASLSLSPGEKVTITCRASSSVSSSYLHWYQQKPGQSPKLWIFSTSNLASGVPSRFSGSGSGTSYSFTISSLEPEDVAVYYCQQYSGLPLTFGGGTKLELKR
notes: also called caninized 39A11 VL3/VH3
EC50 (read off the curve) [1]: ~0.004 µg/mL

B2: Caninized c39A11L2H3 (antibody, V domains shown)
VH: B1 VH
VL: B1 VL with P15Q, G16E, S44A, S71D
notes: written here as L2H3; also called caninized 39A11
EC50 (read off the curve) [1]: ~0.007 µg/mL

B3: Caninized c12B3L3H3 (antibody, V domains shown)
VH: EIQLVQSGGDLVKPGGSVRLSCKASGYTFTNYGMNWVKQAPGKGLQWMGWINTYTGEPTYADDFKGRFTFSLDNAKNTAYLQINSLRAEDTAVYFCARRSIYYPYWGQGTTLTVSS
VL: DVLMTQTPLSLSVSPGEPASISCRSSQSIVYSNGNTYLEWYLQKPGQSPKLLIYKVSNRFSGVPDRFSGSGSGTDFTLRISRVEADDAGVYYCFQGSHVPWTFGGGTKLELKR
notes: also called caninized 12B3 VL3/VH3
EC50 (read off the curve) [1]: ~0.002 µg/mL

B4: Caninized c12B3L2H3 (antibody, V domains shown)
VH: B3 VH
VL: B3 VL with V2I, L3V, L42Q, L111I
notes: also called caninized 12B3
EC50 (read off the curve) [1]: ~0.002 µg/mL

B6: Mouse-canine chimeric antibody 12B3 (antibody, V domains shown)
VH: QIQLVQSGPELKKPGETVKISCKASGYTFTNYGMNWVKQAPGKGLKWMGWINTYTGEPTYADDFKGRFAFSLETSASTAYLQINNLKNEDMATYFCARRSIYYPYWGQGTTLTVSS
VL: B3 VL with S12P, P15L, E17D, P18Q, R79K, D86E, A88L, L111I
notes: expressed in HEK 293 cells, purified on protein A; also called chimera of 12B3
IC50 (read off the curve) [2]: ~0.1 µg/mL
EC50 (read off the curve) [3]: ~0.005 µg/mL
EC50 (read off the curve) [1]: ~0.001 µg/mL
IC50 (read off the curve) [4]: ~0.1 µg/mL
binding result [6]: binds

The next lines start with the values.

IC50 (read off the curve) [2]: ~0.1 µg/mL
EC50 (read off the curve) [3]: ~0.002 µg/mL
IC50 (read off the curve) [4]: ~0.2 µg/mL
binding result [5]: binds
B5: Mouse-canine chimeric antibody 27G12 (antibody, V domains shown)
VH: QIQLVQSGPELKKPGETVKISCKASGYTFTTYGVSWVKQAPGKGLRWMGWINTYSGMPTYVDDFKGRFAFSLETSASTAFLQINNLKNEDTAIYFCARRGISFDYWGQGTTLTVSS
VL: DVLMTQTPLSLPVSLGDHASISCKSSQSIVYINGNTYLEWYLQKPGQSPKLLIYKVSKRFSGVPDRFSGSGSGTDFTLKISRVEAEDLGVYYCFQGSHVPWTFGGGTKLEIKR
notes: Mouse variable regions fused to canine constant heavy chain and canine kappa; HEK 293, protein A

IC50 (read off the curve) [2]: ~0.1 µg/mL
EC50 (read off the curve) [3]: ~0.002 µg/mL
binding result [7]: binds
IC50 (read off the curve) [4]: ~0.2 µg/mL
B7: Mouse-canine chimeric antibody 110E3 (antibody, V domains shown)
VH: B6 VH with F68V, Y80F, M91T, S100G, I101V, Y102R, Y103L, P104D
VL: B5 VL with H18Q, K24R, N33S, N35S, K58S
notes: as for B5

IC50 (read off the curve) [2]: ~0.1 µg/mL
EC50 (read off the curve) [3]: ~0.002 µg/mL
IC50 (read off the curve) [4]: ~0.2 µg/mL
B8: Mouse-canine chimeric antibody 45A9 (antibody, V domains shown)
VH: B6 VH with M91T, S100G, I101T, P104R, Y105P
VL: B5 VL with H18Q, K24R, I32S, N33H, L51V, K58N
notes: as for B5

binding result [8]: binds
IC50 (read off the curve) [2]: ~0.3 µg/mL
EC50 (read off the curve) [3]: ~0.0007 µg/mL
IC50 (read off the curve) [4]: ~0.2 µg/mL
B9: Mouse-canine chimeric antibody 22A11 (antibody, V domains shown)
VH: QVQLQQPGTELVKPGASVKLSCKASGYTFTSYWMHWVKQRPGQGLEWIGNINPSNGGTRFNEKFKNKATLTEDKSSSTAYMQLSSLTSEDSAVYYCARSNYGSGWAWFAYWGQGTLVTVSA
VL: DIQMNQSPSSLSASLGDTITITCHASQNINVWLSWYQQKPGNIPKLLIYKSSNLHTGVPSRFSGSGSGTGFTLTISSLQPEDIATYYCQQGQSYPWTFGGGTKLEIKR
notes: as for B5

IC50 (read off the curve) [2]: ~0.1 µg/mL
EC50 (read off the curve) [3]: ~0.009 µg/mL
EC50 (read off the curve) [1]: ~0.004 µg/mL
IC50 (read off the curve) [4]: ~0.2 µg/mL
B10: Mouse-canine chimeric antibody 39A11 (antibody, V domains shown)
VH: EVKLVESGGGLVQPGGSLSLSCATSGFTFSDYYMSWVRQSPGKALEWMGFIRNKANGYTTEYSASLKGRFTISRDNSQSILYLQMNVLRAEDSATYYCVRFGLMYYFDYWGQGTTLTVSS
VL: ENVLIQSPAIMSASPGEKVTMTCRASSSVSSSYLHWYQQKSGASPKLWIFSTSNLASGVPARFSGSGSGTSYSLTINSVEAEDAATYYCQQYSGLPLTFGGGTKLEIKR
notes: Mouse variable regions fused to canine constant heavy chain and canine kappa; HEK 293, protein A; also called chimera of 39A11
